To fix the notation:
B1: Twister Ribozyme (parent)
chain: AACACUGCCAAUGCCGGUCCCAAGCCCGGAUAAAAGUGGAGGGGGCGG

Variants of B1 are the subject of the series. The series is described as follows: self-cleavage, relative activity (ratio to wild type); higher = more cleavage; co-transcriptional.
AACACUGCCAAUGCCGGUCCCAAGCCCGGAUAAAAGUGAAGGUGGCGG [G39A G43U]: the self-cleavage came out at 0.134. For AACACUGCCAAUGCCGGUCCCAAGCCCGUAUAAAAGUGGAGGUGGCGG [G29U G43U] the value was 0.299; for AACACUGCCAAUGCCGGUCCCAAGCCCGGGUAAAAGUGGAGGGGGCGA [A30G G48A], 0.958; for AACACUGCCAAUGCCGGUAGCAAGCCCGGAUAAAAGUGGAGGGGGCGG [C19A C20G], 0.093. On to AACACUGCCAAUGCCGGUCCCAAGCCCGGAUUAAAGUGGAGGGGGCGC [A32U G48C], for which the self-cleavage was found to be 1.2.

For AAUACUGCCAAUGCCGGUCCCAAACCCGGAUAAAAGUGGAGGGGGCGG [C3U G24A], the self-cleavage was determined as 0.0721. For AACACUGCCAACGCCGGUCCCCAGCCCGGAUAAAAGUGGAGGGGGCGG [U12C A22C] the value was 0.861; for AACACUGCCAAUGCCGGUCCCAAGCCCGGAUAAAAGUGGACGGGGCGG [G41C], 0.326; for AACACUGCCAAUGCCGGUCCCAAGCUCGGAUAAAAGUGGAGGGGCCGG [C26U G45C], 0.0973. In the case of AACACUGCCAAUGCGGGUCCCAAGCCCGGAUAAAAGUGGAGGGGGCGU [C15G G48U], the self-cleavage was found to be 0.0875.

In the case of AACACUGCCAAUGCCGGUCCCAAGCCCGGAUAAAAGUGGAGUCGGCGG [G42U G43C], the self-cleavage came to 0.114. Regarding AACACUGCCAAUGCCGGUCCCAAGCCCGGAUAACAGUGGAGGGGGCGU [A34C G48U], the self-cleavage stood at 0.21. Turning to ACCACUGCCAAUGACGGUCCCAAGCCCGGAUAAAAGUGGAGGGGGCGG [A2C C14A], the self-cleavage amounted to 0.0856. Take AUCACUGCCAAUGCCGGUCCCAAGCCCGGAUAAAAGUGGAGGGGCCGG [A2U G45C]: the self-cleavage was determined as 0.191. In the case of AUCACUGCCAAUGCCGGUCCCAAGCCCGGAUAAAAGUGGAGGGGACGG [A2U G45A] it was 0.514; in that of ACCACUGCCAAUGCCGGUCCCAAGCCCGGAUAAAAGUGGCGGGGGCGG [A2C A40C], 0.07. Take AACACUGCCAAUGCCGGUCCCAAGACCGGAUAAAGGUGGAGGGGGCGG [C25A A35G]: the self-cleavage stood at 0.0612. For the variant AACACUGCCAAUGCCGGUCGCAAGCCCGGAUAAAAGUCGAGGGGGCGG [C20G G38C], the self-cleavage was determined as 0.108. For AAGACUGCCAAUGCCGGUCCCAAGCCCGGAUAAAAGUGGAGGGGGCGU [C3G G48U] the value was 0.549; for GACACUGUCAAUGCCGGUCCCAAGCCCGGAUAAAAGUGGAGGGGGCGG [A1G C8U], 0.245. With AACACUGCCACUGCCGGUCCCAAGCCCGGAUAAAAGUGGAGAGGGCGG [A11C G42A], the self-cleavage worked out at 0.248. In the case of AACACUGCGAAUGACGGUCCCAAGCCCGGAUAAAAGUGGAGGGGGCGG [C9G C14A] it was 0.536; in that of AACACUGCCAAUGCCGGUCCCAAGCCCGGAUAAAAGUGGAGGGGACGU [G45A G48U], 0.917. For AACACUGCCAAUGACGGUCCCGAGCCCGGAUAAAAGUGGAGGGGGCGG [C14A A22G], the self-cleavage came out at 0.407. As to AACACCGCCAAUGCCGGUCCCAAGCCCGUAUAAAAGUGGAGGGGGCGG [U6C G29U], the self-cleavage worked out at 0.371. In the case of AACACUGCCCAUGCCGGUCCCCAGCCCGGAUAAAAGUGGAGGGGGCGG [A10C A22C] it was 0.993; in that of AACACUGCCAAUGCCGGUCCCAAGCCCGGAUAAAAGUGGAGUGGACGG [G42U G45A], 0.294; in that of AUCACUGCCAAUGCCGGUCCCAAGCCCGGAUAAAAGUGGAGGGUGCGG [A2U G44U], 0.429. In the case of AACACUGCCAAUGCCGGGCCCAAGCCCGAAUAAAAGUGGAGGGGGCGG [U18G G29A] it was 0.089; in that of AACACUGCCAAUGACGGUCCCAAGCCCUGAUAAAAGUGGAGGGGGCGG [C14A G28U], 0.854. In the case of AACGCUGCCAAUGCCGGUCCCAAGCCCGUAUAAAAGUGGAGGGGGCGG [A4G G29U] it was 0.851.

Regarding AACACGGCCAAUGCCGGCCCCAAGCCCGGAUAAAAGUGGAGGGGGCGG [U6G U18C], the self-cleavage worked out at 0.131. In the case of AACACUGCCAAUGCCGGUCCCAAGCCCGCAUAAAAGUCGAGGGGGCGG [G29C G38C] it was 0.736; in that of AACACUGCCAAUGCCGGUCCCAAGCCCGGAUCAAAGGGGAGGGGGCGG [A32C U37G], 0.625; in that of AACACUGCCAAUGCCGGUCCCAAGCCCGGAUAACAGUGGAGGGGGCGG [A34C], 0.378. In the case of AACACUGCCAAUGCCGGUCCCAAGACCGGCUAAAAGUGGAGGGGGCGG [C25A A30C] it was 0.0625. In the case of AACACUGCCAAUGCCGGUCCCAAGCCCGGAUAAAAGUAGCGGGGGCGG [G38A A40C] it was 0.129; in that of AACACUGCCAAGGCCGGUCCCAAGCCCGGAUAAAAGUGGAGGGGGCGA [U12G G48A], 0.593; in that of AACACUGCCAAUGCCGGUCCCAAGCCCGGAUAAAAGGGAAGGGGGCGG [U37G G39A], 0.126. Turning to AACACUGCCAAUGCCGAUCCCAAGCACGGAUAAAAGUGGAGGGGGCGG [G17A C26A], the self-cleavage was determined as 0.78. For AACACUGACAAUGCCGGUCCCAAGGCCGGAUAAAAGUGGAGGGGGCGG [C8A C25G] the value was 0.0894; for AACGCUGCCAAUGCCGGUCCCAAGCCCGGAUAAAAGUGGAGGGGGGGG [A4G C46G], 1.15.

Turning to AAUACUGCCAAUGCCGGUCCCAAGCCCGGAUUAAAGUGGAGGGGGCGG [C3U A32U], the self-cleavage was found to be 0.402. In the case of AACACUGCAAAUGCCGGACCCAAGCCCGGAUAAAAGUGGAGGGGGCGG [C9A U18A] it was 0.0887; in that of AACACUGCCAAUACCGGUCCCAAGCCGGGAUAAAAGUGGAGGGGGCGG [G13A C27G], 0.073.

As to AACACUACCAAUGCCGGUCCCAAGCCCGGAUAAAAGUGGAUGGGGCGG [G7A G41U], the self-cleavage was 0.11. For AACACUCCCAUUGCCGGUCCCAAGCCCGGAUAAAAGUGGAGGGGGCGG [G7C A11U] the value was 0.0693; for AACACUGCCAAUGCCGGUCCCAAGCCUGGAUUAAAGUGGAGGGGGCGG [C27U A32U], 0.842.

With AACACUGCCAAUGCCCGUCCCAAGCCCGGAUAAAAGUGGAGUGGGCGG [G16C G42U], the self-cleavage turned out to be 0.115. As to AACAUGGCCAAUGCCGGUCCCAAGCCCGGAUAAAAGUGGAGGGGGCGG [C5U U6G], the self-cleavage came out at 0.261.

With AACACUGCCAAUGCCGGUCCCAAGCCCGGAUACAGGUGGAGGGGGCGG [A33C A35G], the self-cleavage is 0.707. In the case of AACACUGACAAAGCCGGUCCCAAGCCCGGAUAAAAGUGGAGGGGGCGG [C8A U12A] it was 0.475; in that of AACACUGCCAAUGCCGGUCCGAAGCCCGGAUAUAAGUGGAGGGGGCGG [C21G A33U], 0.0662; in that of AACACUGCCAAUGCCGGUCCCAAGCCCGGAUAAAGGUGGAGGGGGCGU [A35G G48U], 0.882.

The record behind these values is the RNAGym collection of RNA variant scans (doi:10.7554/elife.80360).
